Source: the nanobody polyreactivity screen of Harvey et al. (2022)

Assay: yeast display, Sf9 membrane polyspecificity reagent, FACS + sequencing; frameworks hold sequencing errors
Summary of the method: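 In a synthetic yeast display library (Saccharomyces cerevisiae BJ5465), nanobody expression was induced with galactose for 36–48 hours. FACS gates were set low and high (top ~1%) using anti-HA fluorescence for expression and streptavidin fluorescence for binding of the Sf9 membrane reagent. Each polyreactivity label is drawn from the gate of origin.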

Row | Sequence | polyreactivity (PSR sort gate)
1 | QVQLVESGGGLVQAGGSLRLSCAASGSILYLNAMGWYRQAPGKERELVAAITWSGGSTSYADSVKGRFTISRDNAKNTVYLQMISLKPEDTAVYYCAAVRRGYGGVYYAGGYWGQGTQVTVSS | low polyreactivity
2 | QVQLVESGGGLVQAGGSLRLSCAASGSILYPNAMGLYRQAPGKERELVAAISSSGGSTYYADSVKGRFTISRDNAKNTVYLQMNSLKPEDTAVYYCAADHYIPIYSKYDYWGQVTQVTVSS | high polyreactivity
3 | QVQLVESGGGLVQAGGSLRLSCAASGSILYRNAMGWYRQAPGKEREFVAAISWRGGSTYYADSVKGRFTISRDNAKNTVYLQMNSLKPEDTAVYYCAKGGYRSPPGRYDGYYWGQGTQVTVSS | high polyreactivity
4 | QVQLVESGGGLVQAGGSLRLSCAASGSILYRYTMGWYRQAPGKERELVAAITKRGGRTYYADSVKGRFTISRDNAKNTVYLQMNSLKPEDTAVYYCAAKYYTGGSFEMYYWGQGTQVTVSS | high polyreactivity
5 | QVQLVESGGGLVQAGGSLRLSCAASGSILYTNAMGWYRQAPGKERELVAAITTSGASTYYADSVKGRFTISRDNAKNTVYLQMNSLKPEDTAVYDCAAPSRYRYYWGNYWGQGTQVTVSS | high polyreactivity
6 | QVQLVESGGGLVQAGGSLRLSCAASGSILYVYAMGWYRQAPGKERELVAAISFSGGSTYYADSVKGRFTISRDNAKNTVYLQMNSLKPEDTAVYYCAAALGPGAWYGDKYEYEYWGQGTQVTVSS | low polyreactivity
7 | QVQLVESGGGLVQAGGSLRLSCAASGSILYVYAMGWYRQAPGKERELVATITGRVVSKNYADSVKGRLTLSRDNAKNSVYLQMNSLKPEDTAVYYCAARTRRRRGEYDYWGQGTQVTVSS | high polyreactivity
8 | QVQLVESGGGLVQAGGSLRLSCAASGSILYVYAMGWYTQAPGKERELVAAISNRDGSTYYADSVKGRFTISRDNAKNTVYLQMNSLKPEDTAVYYCNADGYGDYSFLKYRFEYDYWGQGTQVTVSS | low polyreactivity
9 | QVQLVESGGGLVQAGGSLRLSCAASGSILYVYDMGWYRQAPGNERELVATITGRVVSTNYADSVKGRFTISRDNAKNTVYLQMNSLKPEDTAVYYCAARTRRRRGEYDYWGQGTQVTVSS | high polyreactivity
10 | QVQLVESGGGLVQAGGSLRLSCAASGSILYWNAMGWYRQAPGKERELVADITWRGGSTYADSVKGRFTISRDNAKNTVYLQMNSLKPEDTAVYYCNAVPVRGSAPRYRQTYSYWGQGTQVTVSS | high polyreactivity
11 | QVQLVESGGGLVQAGGSLRLSCAASGSIMNNYAMGWYRQAPGKERELVAAISSSGGTNYADSVKGRFTISRDNAKNTVYLLMNSLKPEDTAVYYCNADVMDGGYDYWGQGTQVTVSS | low polyreactivity
12 | QVQLVESGGGLVQAGGSLRLSCAASGSINCSNAMGLYRKAPRKERDLVAAITESGGDTYYADSVKGRFTISRDNAKNTVYLLINSMKPEDTAVYYCAARYFGVIVDVSLFSEYGSWGQGTQVTVSS | low polyreactivity
13 | QVQLVESGGGLVQAGGSLRLSCAASGSIQGKNAMRWYRPAPGKERELVAAISTRGGSTYYADSVKGRFTISRDNAKNSVYFQMNSLKPEDTAVYYCNARWREYKAKWGSRYDYWGQGTQVTVSS | high polyreactivity
14 | QVQLVESGGGLVQAGGSLRLSCAASGSIQYRYAMGWYRQAPGKERELVAAITRSGGSTYYADSVKGRFTISRDNAKNTVYLQMNSLKPEDTAVYYCARQRKVSAHSIEMDYWGQGTQVTVSS | low polyreactivity
15 | QVQLVESGGGLVQAGGSLRLSCAASGSIQYYAMGWYRQAPGKERELVAAIRFSGGRTYYADSVKGRFTISRDNAKNTVYLQMNSLKPEDTAVYYCAAYRSPRRSGAPSQGKFDYWGQGTQVTVSS | low polyreactivity
16 | QVQLVESGGGLVQAGGSLRLSCAASGSIRYNAMGWYRQAPGKERELVAAISYRGGTTYYADSVKGRYTISRDNAKNTVYLQMNSLKPEDTAVYYCNAGVRAYGYSAKYYYWGQGTQVTVSS | high polyreactivity
17 | QVQLVESGGGLVQAGGSLRLSCAASGSISAGNAMGWYRQAPGKERELVAAISISAGRTYYADSVKGRFTISRDNAKNTVYLQMNSLKPEDTAVYYCNAYSSYIKYDYWGQGTQVTVSS | high polyreactivity
